Results on three molecules are retold here after patent US6903183B1, “Compositions and methods for regulation of steroidogenesis” (Texas Tech University Health Services Center, priority 1996, dated 2005).

Experiment [1] addresses T1, StAR (Mus musculus, UniProt P51557).
T1 construct: made in house; host or cells: three sources: dbcAMP-stimulated MA-10 cells (endogenous); COS 1 cells transfected with StAR cDNA; E. coli with pKK233-2/StAR
T1 sequence (P51557 63-284): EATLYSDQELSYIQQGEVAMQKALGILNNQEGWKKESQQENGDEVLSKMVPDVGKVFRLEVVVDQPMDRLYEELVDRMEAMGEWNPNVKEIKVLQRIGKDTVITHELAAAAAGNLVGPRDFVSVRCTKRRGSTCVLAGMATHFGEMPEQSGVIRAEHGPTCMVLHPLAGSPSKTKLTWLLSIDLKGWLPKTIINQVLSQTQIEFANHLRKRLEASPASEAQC
Kind of experiment: Fluorescent sterol binding assay.

The target in experiment [2] is T1, StAR. Kind of experiment: Cholesterol binding to StAR (filtration radioassays, native PAGE). An excerpt:
For these studies StAR proteins were obtained from three sources; (1) MA-10 cells stimulated with dbAMP; (2) monkey kidney cells (COS 1) transfected with StAR cDNA; and (3) expression of a recombinant pKK233-2/StAR plasmid in E. coli. Filtration radioassays and Steady-State (native) polyacrylamide gel electrophoresis were used to detect cholesterol binding to StAR. […] Thus, this study has provided evidence that cholesterol can bind to the StAR protein with high affinity.

The next experiment concerns MA-10 cells. Kind of experiment: Progesterone production in MA-10 cells transfected with the 30 kDa cDNA (radioimmunoassay). It counts as cell-based, mouse. The source says: Expression of the 30-kD Protein in MA-10 Cells and COS I Cells. The full length SalI-NotI 1456 base pair 30-kDa cDNA was subcloned into the eukaryotic expression vector, pCMV (Anderson, et al., 1989). MA-10 cells were transfected with DNA by a lipsome-mediated uptake using the LipofectAMINE reagent (Life Technologies, Inc. Gathersburg, Md.) (Hawley-Nelson, et al., 1993). Plasmid DNA used in transfection experiments were purified by CsCl density gradient followed by polyethylene glycol precipitation. The DNA was mixed with {fraction (1/10 )} the final volume of Waymouth's media minus serum and minus antibiotics (WAY^−) and added to an equal volume of WAY^− media containing the LipofectAMINE reagent. The DNA/lipid solution was gently mixed and incubated for 30 min at room temperature, then WAY^− media was added to achieve the final concentration of the DNA and LipofectAMINE reagent of 5 μg/ml and 20 μg/ml respectively. The cells were washed once with WAY^− media, incubated with transfection mix for 6 h, washed once with PBS, then incubated with Waymouth's plus 15% horse serum. The same procedure was used for transfection of COS 1 cells except Dulbecco's modified Eagle's media minus serum and antibiotics was used for the transfection media. For isolation of mitochondria for immunoblot analysis, cells were grown on 100-mm dishes. For progesterone production assays, MA-10 cells were plated into 96 well plates at 75,000 cells/well the day before the experiment. Typically, 8 wells each were transfected with either pCMV or pCMV+30-kDa cDNA for one experiment set.
Radioimmunoassay. 48 hours post-transfection, the growth medium was replaced with Waymouth's minus horse serum. After 6 h at 37° C. 5% CO2, progesterone was measured directly in the media by radioimmunoassay as previously described (Resko, et al., 1974). The progesterone antibody was obtained from Holly Hill Biologicals (Hillsboro, Oreg.).
MA-10 cells were transfected with the 30 kDa cDNA and progesterone production was measured as follows. The full-length cDNA was subcloned into the pCMW eukaryotic expression vector and transfected into MA-10 cells using LipofectAMINE (Life Technologies, Inc.). Cells (75,000 per well) were plated in a 96 well plate the day before transfection. The cells were incubated with the DNA/lipid transfection mixture for 6 hours, washed one time with PBS, and the incubated in Waymouths+15% horse serum. […] After 6 h, the medium was removed and progesterone was measured by radioimmunoassay. The cells were lysed directly in the wells with 0.1% SDS and protein was determined by the method of Bradford (1976). […] The transfected cells were not treated with hormone and progesterone was measured directly in the media after a 6 h incubation.

Experiment [3] concerns COS 1 cells. Kind of experiment: Steroid production in COS 1 cells expressing StAR. The class given is cell-based, monkey. The note with it: transient transfection of COS 1 cells, absence of hormone stimulation. An excerpt:
Testicular tissue of two patients and genome DNA of a third patient with LCAH have mutations in the gene for StAR (Lin et al., Science, 267:1828-1831, 1995) (incorporated herein by reference). […] These truncations were confirmed by Western analysis following expression of the mutated cDNAs in COS cells. Virtually none of the precursor form of StAR expressed from the cDNA of these patients was converted to the mature mitochondrial form.
Also, increases in StAR mRNA and protein closely paralleled steroid production indicating a temporal relationship in these parameters.

Experiment [4] has as its system mitochondria isolated from MA-10 mouse Leydig tumor cells. Kind of experiment: In vitro reconstituted system: pregnenolone synthesis by isolated mitochondria. The class given is biochemical. The note with it: protein added to isolated mitochondria. An excerpt: Rat heart mitochondria were used for the import assay with bovine StAR, indicating import of StAR is not dependent upon factors specific to mitochondria isolated from steroidogenic tissues. The ability of StAR to increase steroid production has also been confirmed in an in vitro reconstituted system.

The test system of experiment [5] is COS 1 cells. The note with it: expressed in COS1 cells (Lin et al., 1995); cited from earlier work.

For `C[C@H](CNc1ccc([N+](=O)[O-])c2nonc12)[C@H]1CC[C@H]2[C@@H]3CC=C4C[C@@H](O)CC[C@]4(C)[C@H]3CC[C@]12C` [NBD-cholesterol], at StAR [1], the “affinity of binding to StAR” value is given as “nanomolar range”.
On to `CC(C)CCC[C@@H](C)[C@H]1CC[C@H]2[C@@H]3CC=C4C[C@@H](O)CC[C@]4(C)[C@H]3CC[C@]12C` [cholesterol], for which, at StAR [2], the “specific binding to StAR” value is on record as 20-40 % of the total binding.

B1: StAR: LH-inducible mitochondrial 37 kDa precursor / 30 kDa mature protein, SEQ ID NO:2 (mouse) or 18 (human) (protein)
chain: MGQVRRRSSLLGSQLEATLYSDQELSYIQQGEVAMQKALGILNNQEGWKKESQQENGDEVLSKMVPDVGKVFRLEVVVDQPMDRLYEELVDRMEAMGEWNPNVKEIKVLQRIGKDTVITHELAAAAAGNLVGPRDFVSVRCTKRRGSTCVLAGMATHFGEMPEQSGVIRAEHGPTCMVLHPLAGSPSKTKLTWLLSIDLKGWLPKTIINQVLSQTQIEFANHLRKRLEASPASEAQC
For the molecule B1, the “average rate of progesterone produced” value in the experiment on MA-10 cells (MA-10 cells expressing the 30 kDa protein) was 166 pg progesterone produced per mg protein per hour. For the same molecule, the “increase in progesterone production above cells transfected with vector alone” value with MA-10 cells (MA-10 cells, absence of hormone stimulation) is on record as 1.5-3.5. This molecule registered an increase in steroidogenesis in the experiment with MA-10 cells (expression of 30 kDa protein in MA-10 cells versus pCMV vector alone) of 1.5 to 3.7 fold. For the same molecule, in the experiment with MA-10 cells (stable transfected MA-10 cell lines constitutively synthesizing the 30 kDa protein), the “constitutive steroid production versus basal parental MA-10 cells” value is recorded as “about 9 x”. The steroid production entry in the experiment on COS 1 cells [3] is given as “several fold increase”. The pregnenolone synthesis entry in experiment [4] was “time- and dose-dependent increase”. Moreover, the “increase in steroid production” value with COS 1 cells [5] is on record as 8 fold.
